Assay results from patent US20230110128A1, “USE OF ANTIBODY DRUG CONJUGATES COMPRISING TUBULIN DISRUPTING AGENTS TO TREAT SOLID TUMOR” (Seagen Inc., priority 2018, published 2023).

What was measured:
[1] = system: PC-3 cells subcutaneously engrafted; assay: Immune cell infiltration of PC-3 tumors by flow cytometry; assay type: in vivo, athymic nude mice; conditions: single intraperitoneal dose, 8 days post-ADC treatment
From the text: Athymic nude mice were subcutaneously engrafted with PC-3 cells. Upon reaching 200 cubic millimeters, mice received a single intraperitoneal dose of an MMAE-containing ADC (SGN-LIV1A or anti-CD71-MMAE). 8 days post-ADC treatment, tumors were excised and assessed for immune cell infiltration and composition by flow cytometry.

[2] = system: MCF7 cells subcutaneously engrafted; assay: Immune cell composition of MCF7 tumors by flow cytometry; assay type: in vivo; conditions: SOD mice with MCF7 tumors, single intraperitoneal dose, 8 days post-ADC treatment
From the text: […] were subcutaneously engrafted with MCF7 cells. Upon reaching 200 cubic millimeters, mice received a single intraperitoneal dose of an MMAE-containing ADC (SGN-LIV1A or anti-CD71-MMAE). 8 days post-ADC treatment, tumors were excised and assessed for immune cell composition by flow cytometry.

[3] = system: MCF7 cells; assay: ATP secretion from MCF7 cells; assay type: cell-based
[4] = system: MCF7 cells; assay: HMGB1 release from MCF7 cells; assay type: cell-based
Experimental: Induction of ICD is also characterized by the secretion of ATP and HMGB1. Extracellular ATP serves as a strong chemotactic signal, promoting immune cell migration to the tumor site. Upon arrival, extracellular HMGB1 signals through various pro-inflammatory receptors (TLR2, TLR4, RAGE) to activate antigen-presenting cells, thereby promoting immune activity within the tumor.
(§1) MCF7 cells were treated with MMAE or an MMAE-containing ADC (SGN-LIV1A) for 16 hours and harvested in […] for western bot analysis. […] Induction of ICD is also characterized by the secretion of ATP and HMGB1. Extracellular ATP serves as a strong chemotactic signal, promoting immune cell migration to the tumor site. Upon arrival, extracellular HMGB1 signals through various pro-inflammatory receptors (TLR2, TLR4, RAGE) to activate antigen-presenting cells, thereby promoting immune activity within the tumor.

[5] = system: MCF7 breast cancer cells; assay: Western blot analysis of ER stress response in MCF7 cells; assay type: cell-based; conditions: FIG. 16A
Experimental: MCF7 breast cancer cells were treated with 100 nM MMAE for 16 hours and harvested RIPA buffer for western blot analysis.
as §1

[6] = system: PC-3 cells subcutaneously engrafted; assay: Cytokine/chemokine production in PC-3 tumor-bearing mice by ELISA; assay type: in vivo, athymic nude mice; conditions: PC-3 tumors, single intraperitoneal dose, 8 days post-ADC treatment
Experimental: In another study, athymic nude mice were subcutaneously engrafted with PC-3 cells. Upon reaching 200 cubic millimeters, mice received a single intraperitoneal dose of an MMAE-containing ADC (SGN-LIV1A or anti-CD71-MMAE). 8 days post-ADC treatment, tumors were excised and homogenized in RIPA buffer and cytokine/chemokine production was measured by ELISA. Peripheral cytokine levels were also measured in the serum by ELISA.

B1: SGN-LIV1A (conjugate, chains of the INN, looked up)
VH: QVQLVQSGAEVKKPGASVKVSCKASGLTIEDYYMHWVRQAPGQGLEWMGWIDPENGDTEYGPKFQGRVTMTRDTSINTAYMELSRLRSDDTAVYYCAVHNAHYGTWFAYWGQGTLVTVSS
VL: DVVMTQSPLSLPVTLGQPASISCRSSQSLLHSSGNTYLEWYQQRPGQSPRPLIYKISTRFSGVPDRFSGSGSGTDFTLKISRVEAEDVGVYYCFQGSHVPYTFGGGTKVEIK
modifications: vedotin (MMAE) payload
- Activation of tumor-infiltrating immune cells [1]: enhanced activation
- Infiltration of immune cells into tumors [1]: increased infiltration of immune cells
- Immune activation by tumor-infiltrating immune cells [2]: increased level of immune activation by tumor-infiltrating immune cells
- Secretion of ATP [3]: increased secretion
- ATP secretion ([3]; after 48 hours of treatment): Increased AIR secretion
- Secretion of HMGB1 [4]: increased secretion
- Severe ER stress (phosphorylation of IRE1 and JNK) [5]: elicits severe ER stress (phosphorylation of IRE1 and JNK)
- Cytokine and chemokine production (intratumoral and serum) [6]: elevated cytokine and chemokine production
